Target: T1, MUC1 on WISH cells (human, UniProt P15941 24-1255)
T1 construct: whole, on cells; WISH cells also carry low levels of EGFR; also called MUC1-expressing cells (WISH)
Test: cell binding on WISH cells

B1: 1993-H02 with an HT186-D11 light chain (anti-MUC1 antibody H02) (antibody, V domains shown)
VH: QMQLVQSEAELKKPGASVKVSCKASGYSFTSHFMHWVRQAPGQGLEWMGWIDPVTGGTKYAQNFQGWVTMTRDTSIRTAYLELSRLRSDDTAMYYCAREARADRGQFDKWGQGTLVTVAS
VL: QSVLTQPPSVSVAPGKTARITCGGNNIGSKSVHWYQQKPGQAPALVIYYGSNRPSGIPERFSGSNSGNTATLTISRVEAGDEADYYCQVWDSSSDWVFGGGTKLTVL
notes: One molecule is used here for both experiments
Question: For B1, which Kd is on record?
Answer: The Kd was 23.9 nM.
